Patent USRE48805 (VISION GLOBAL, dated 2021)

Target: human serum albumin (HSA) (human, UniProt P02768 25-609)
Experiment: native polyacrylamide gel (10%) shift after 60 min incubation at room temperature at the stated HSA:AAD molar ratios

Chain of human serum albumin (HSA) (P02768 25-609 limits assumed): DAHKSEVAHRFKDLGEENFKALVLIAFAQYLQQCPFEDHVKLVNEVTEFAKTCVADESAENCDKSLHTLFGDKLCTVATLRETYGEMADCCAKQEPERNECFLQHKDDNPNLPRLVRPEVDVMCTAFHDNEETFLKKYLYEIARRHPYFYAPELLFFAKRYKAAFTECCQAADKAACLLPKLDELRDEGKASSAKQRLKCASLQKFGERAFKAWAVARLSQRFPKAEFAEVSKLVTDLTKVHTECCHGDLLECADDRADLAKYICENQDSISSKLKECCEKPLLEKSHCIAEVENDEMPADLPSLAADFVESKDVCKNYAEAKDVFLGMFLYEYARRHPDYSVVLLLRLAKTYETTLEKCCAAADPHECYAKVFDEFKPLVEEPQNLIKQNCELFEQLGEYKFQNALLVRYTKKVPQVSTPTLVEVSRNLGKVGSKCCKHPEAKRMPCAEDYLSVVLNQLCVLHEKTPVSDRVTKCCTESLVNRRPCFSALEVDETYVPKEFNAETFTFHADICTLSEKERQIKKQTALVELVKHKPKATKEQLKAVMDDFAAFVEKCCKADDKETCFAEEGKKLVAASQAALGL

B1: albumin-binding arginine deiminase (AAD) fusion protein His-ABD-PolyN-ADI (enzyme)
chain: MHHHHHHDEAVDANSLAEAKVLANRELDKYGVSDYYKNLINNAKTVEGVKALIDEILAALPSGSNNNNNNGSGGSVFDSKFKGIHVYSEIGELESVLVHEPGREIDYITPARLDELLFSAILESHDARKEHKQFVAELKANDINVVELIDLVAETYDLASQEAKDKLIEEFLEDSEPVLSEEHKVVVRNFLKAKKTSRELVEIMMAGITKYDLGIEADHELIVDPMPNLYFTRDPFASVGNGVTIHYMRYKVRQRETLFSRFVFSNHPKLINTPWYYDPSLKLSIEGGDVFIYNNDTLVVGVSERTDLQTVTLLAKNIVANKECEFKRIVAINVPKWTNLMHLDTWLTMLDKDKFLYSPIANDVFKFWDYDLVNGGAEPQPVENGLPLEGLLQSIINKKPVLIPIAGEGASQMEIERETHFDGTNYLAIRPGVVIGYSRNEKTNAALEAAGIKVLPFHGNQLSLGMGNARCMSMPLSRKDVKW
B1: binds.
